# Assay results as given in patent US20060193821, “Aptamers to the human IL-12 cytokine family and their use as autoimmune disease therapeutics” (published 2006).
# T1: IL-23 (mouse, p19/p40 heterodimer) (Mus musculus, UniProt Q9EQ14;P43432 SEQ:22-196,SEQ:23-335)
# T1 sequence 1: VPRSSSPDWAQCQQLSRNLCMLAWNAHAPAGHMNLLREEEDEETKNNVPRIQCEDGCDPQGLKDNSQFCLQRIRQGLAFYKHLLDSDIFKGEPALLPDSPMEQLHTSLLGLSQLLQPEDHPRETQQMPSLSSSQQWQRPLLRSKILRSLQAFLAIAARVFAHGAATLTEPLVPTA
# T1 sequence 2: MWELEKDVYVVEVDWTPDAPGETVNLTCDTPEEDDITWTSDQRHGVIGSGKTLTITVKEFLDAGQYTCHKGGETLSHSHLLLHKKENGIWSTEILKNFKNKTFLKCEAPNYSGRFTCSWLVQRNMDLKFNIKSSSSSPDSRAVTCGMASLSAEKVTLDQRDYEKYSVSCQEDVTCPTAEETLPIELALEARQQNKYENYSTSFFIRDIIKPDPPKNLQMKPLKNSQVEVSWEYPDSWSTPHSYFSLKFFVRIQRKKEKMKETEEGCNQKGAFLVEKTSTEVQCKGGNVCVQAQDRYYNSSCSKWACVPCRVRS
# B1: ARC1625 (mixed)
# RNA: ACAGGCAAGUAAUUGGGGAGUGCGGGCGGGGUGU
# modifications: 2'-OMe C,U and G16,G17,G24,G25,G30,G31; other A,G deoxy; PS 32-33; 3'-idT [2'-OMe C2,C6,U10,U13,U14,G16,G17,U21,C23,G24,G25,C27,G30,G31,U32,U34; other A,G deoxy; PS 32-33 (N = PS linkage, left out); 3'-inverted dT 35]
# B2: AMX84-F11 (ssRNA)
# RNA: GGGAAAAGCGAAUCAUACACAAGAUGUGCUUGAGUUAAAUCUCAUCGUCCCCGUUUGGGGAUAUGCUCCGCCAGAGACCAACCGAGAA
# modifications: 2'-F all C and U (rRfY)
# B3: AMX84-A10 (ssRNA)
# RNA: GGGAAAAGCGAAUCAUACACAAGAAGUUUUUUGUGCUCUGAGUACUCAGCGUCCGUAAGGGAUAUGCUCCGCCAGAGACCAACCGAGAA
# modifications: 2'-F all C and U (rRfY)
# B4: AMX84-B10 (ssRNA)
# RNA: GGGAAAAGCGAAUCAUACACAAGAAGUGCUUCAUGCGGCAAACUGCAUGACGUCGAAUAGAUAUGCUCCGCCAGAGACCAACCGAGAA
# modifications: 2'-F all C and U (rRfY)
# B5: AMX86-D6 (ssRNA)
# RNA: GGGAAAAGCGAAUCAUACACAAGAUUAGGCGUCGUGACAAUAACUGGUCCACGAGCAUGUCAGUGCUCCGCCAGAGACCAACCGAGAA
# modifications: 2'-F all C and U (rRfY)
# B6: AMX86-D5 (ssRNA)
# RNA: GGGAAAAGCGAAUCAUACACAAGAGAGGUAUGUGGUUUUGCGGAGCAACUCGUGUCAGCGGUCAGCUCCGCCAGAGACCAACCGAGAA
# modifications: 2'-F all C and U (rRfY)
# B7: ARC1632 (ssRNA)
# RNA: GGAGCGCACUCAGCCACCGGCUUAAUAUCCAAUAGGAACGUUCGCUCUGAGCAGGCGUUUCGACCUCUCUGCUAGC
# modifications: 2'-F C,U
# B8: ARC1634 (ssRNA)
# RNA: GGAGCGCACUCAGCCACCUUGGGCUUAAUACCUAUCGGAUGUGCGCCUAGCACGGAAUUUCGACCUCUCUGCUAGC
# modifications: 2'-F C,U
# B9: ARC1628 (ssRNA)
# RNA: GGAGCGCACUCAGCCACAGGUGGCUUAAUACUGUAAAGACGUGCGCGCAGAGGGAUUUUCGACCUCUCUGCUAGC
# modifications: 2'-F C,U
# B10: ARC1633 (ssRNA)
# RNA: GGAGCGCACUCAGCCACAGCUCGGUGGCUUAAUAUCUAUGUGAACGUGCGCAACAGCUUUCGACCUCUCUGCUAGC
# modifications: 2'-F C,U
# B11: dRmY clone SEQ 93 (mixed)
# RNA: GGGAGAGGAGAGAACGUUCUACGUAACGGGGUGGGAGGGGCGAACAACUUGACGCUGUCGAUCGAUCGAUCGAUG
# modifications: 2'-deoxy A and G, 2'-OMe C and U (dRmY)
# B12: dRmY clone SEQ 95 (mixed)
# RNA: GGGAGAGGAGAGAACGUUCUACGGGCUACGGGGAUGGAGGGUGGGUCCCAGACGCUGUCGAUCGAUCGAUCGAUG
# modifications: 2'-deoxy A and G, 2'-OMe C and U (dRmY)
# B13: dRmY clone SEQ 96 (mixed)
# RNA: GGGAGAGGAGAGAACGUUCUACACGGGGUGGGAGGGGCGAGUCGCAUGGAUGCGCUGUCGAUCGAUCGAUCGAUG
# modifications: 2'-deoxy A and G, 2'-OMe C and U (dRmY)
# Biological target: T2, IL-23 (human, p19/p40 heterodimer) (Homo sapiens, UniProt Q9NPF7;P29460 SEQ:20-189,SEQ:23-328)
# T2 sequence (Q9NPF7 20-189, chain 1 of 2): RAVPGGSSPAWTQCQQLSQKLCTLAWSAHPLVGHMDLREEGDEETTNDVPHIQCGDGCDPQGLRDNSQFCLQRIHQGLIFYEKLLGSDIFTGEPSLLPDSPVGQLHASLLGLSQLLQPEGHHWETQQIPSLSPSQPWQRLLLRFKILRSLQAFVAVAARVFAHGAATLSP
# T2 sequence (P29460 23-328, chain 2 of 2): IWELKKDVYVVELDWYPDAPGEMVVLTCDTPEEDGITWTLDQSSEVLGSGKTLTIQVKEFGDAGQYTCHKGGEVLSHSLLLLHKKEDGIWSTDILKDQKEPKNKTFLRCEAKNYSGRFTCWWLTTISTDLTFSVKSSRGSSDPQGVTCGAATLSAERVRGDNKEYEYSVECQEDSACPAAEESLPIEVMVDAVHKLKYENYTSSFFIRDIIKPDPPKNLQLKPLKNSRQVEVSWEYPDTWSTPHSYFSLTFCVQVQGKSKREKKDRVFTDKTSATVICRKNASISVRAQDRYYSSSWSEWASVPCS
# Experiment: cell_activity; Pathscan pSTAT3
# Details: tags: R&D Systems, carrier free
# Procedure: Inhibition of IL-23-induced STAT3 phosphorylation was measured using the Pathscan® Phospho-STAT3 (Tyr705) Sandwich ELISA Kit (Cell Signaling Technology, Beverly, Mass.).
# Similar to the TransAM™ Assay method previously described, the Pathscan® Phospho-STAT3 (Tyr705) Sandwich ELISA Kit detects endogenous levels of Phospho-STAT3 (Tyr705) protein by using a STAT3 rabbit monoclonal antibody which has been coated onto the wells of a 96-well plate. After incubation with cell lysates, both nonphospho- and phospho-STAT3 proteins are captured by the coated antibody. A phospho-STAT3 mouse monoclonal antibody is added to detect the captured phospho-STAT3 protein, and an HRP-linked anti-mouse antibody is then used to recognize the bound detection antibody. HRP substrate, TMB, is added to develop color, and the magnitude of optical density for this developed color is proportional to the quantity of phospho-STAT3 protein.
# PHA Blasts were isolated and prepared as described above and treated with hIL-23 at a final constant concentration of 6 ng/mL (R&D Systems, Minneapolis, Minn.) to induce STAT3 activation, instead of using 3 ng/mL as previously described with the TransAM™ assay. Clones were screened by using a 6-point […] titration from 0 to 700 nM in 3 fold dilutions in combination with a constant IL-23 concentration of 6 ng/mL of IL-23 (R&D Systems, Minneapolis, Minn.) to induce STAT3 activation, instead of using 3 ng/mL as previously described with the TransAM™ assay. Lysates of treated cells were prepared using the buffers provided by the Pathscan kit, and the assay was run according to the manufacturer's instructions. IC₅₀s for the full length clones were calculated from the dose response curves.
row,Binder,IC50 [nM]
1,B1,4

# Biological target: IL-12 (human, p35/p40 heterodimer) (Homo sapiens, UniProt P29459;P29460 SEQ:57-253,SEQ:23-328)
# Sequence (P29459 23-219, chain 1 of 2): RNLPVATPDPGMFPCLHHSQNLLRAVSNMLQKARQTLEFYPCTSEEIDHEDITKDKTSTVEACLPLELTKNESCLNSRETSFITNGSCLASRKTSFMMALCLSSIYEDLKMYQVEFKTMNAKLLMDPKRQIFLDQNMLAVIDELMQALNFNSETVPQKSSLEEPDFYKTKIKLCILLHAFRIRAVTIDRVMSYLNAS
# Sequence (P29460 23-328, chain 2 of 2): as the sequence (P29460 23-328, chain 2 of 2) above
# Experiment: filter; no significant binding; 1X SHMCK, 0.1 mg/mL tRNA
# Details: label: 5'-32P
# Procedure: (§1) Monitoring Progress of rRfY Selection. Dot blot binding assays were performed throughout the selections to monitor the protein binding affinity of the pools. Trace ³²P-labeled RNA was combined with a dilution series of h-IL-23 and incubated at room temperature for 30 minutes in 1×SHMCK (20 mM Hepes, 120 mM NaCl, 5 mM KCl, 1 mM MgCl₂, 1 mM CaCl₂, pH 7.4) plus 0.1 mg/mL tRNA for a final volume of 20 μL. The binding reactions were analyzed by nitrocellulose filtration using a Minifold I dot-blot, 96-well vacuum filtration manifold (Schleicher & Schuell, Keene, N.H.). A three-layer filtration medium was used, consisting (from top to bottom) of Protran nitrocellulose (Schleicher & Schuell), Hybond-P nylon (Amersham Biosciences) and GB002 gel blot paper (Schleicher & Schuell). RNA that is bound to protein is captured on the nitrocellulose filter, whereas the non-protein bound RNA is captured on the nylon filter. The gel blot paper was included simply as a supporting medium for the other filters. Following filtration, the filter layers were separated, dried and exposed on a phosphor screen (Amersham Biosciences, Piscataway, N.J.) and quantified using a Storm 860 Phosphorimager® blot imaging system (Amersham Biosciences).
# (§2) When a significant positive ratio of binding of RNA in the presence of h-IL-23 versus in the absence of h-IL-23 was seen, the pools were cloned using a TOPO TA cloning kit (Invitrogen, Carlsbad, Calif.) according to the manufacturer's instructions. For the h-IL-23 and X-IL-23 selections, the Round 8 pool templates were cloned, and 32 individual clones from each selections were assayed in a 1-point dot blot screen (+/−75 nM h-IL-23, as well as a separate screen at +/−75 nM h-IL-12). For the PN-IL-23 selection, the Round 10 pool was cloned and sequenced, and 8 unique clones were assayed for protein binding in a 1-point dot blot screen (+/−200 nM h-IL-23 and a separate screen at +/−200 nM h-IL-12). Subsequently, the Round 10 PN-IL-23 pool was re-cloned for further sequences, as well as the R12 PN-IL-23 pool, and the clones were assayed for protein binding in a 1 point do blot screen (+/−100 nM h-IL-23 or +/−200 nM h-IL-12).
row,Binder,binding result
1,B2,no binding
2,B3,no binding
3,B4,no binding
4,B5,no binding
5,B6,no binding

# Biological target: T1, IL-23 (mouse, p19/p40 heterodimer)
# Experiment: cell_activity; TransAM STAT3
# Details: tags: isolated in-house
# Procedure: In summary, the cell-based assay was conducted by isolating the peripheral blood mononuclear cells (PBMCs) from whole blood using a Histopaque gradient (Sigma, St. Louis, Mo.). The PBMCs were cultured for 3 to 5 days at 37° C./5% CO₂ in Peripheral Blood Medium (Sigma) which contains PHA, supplemented with IL-2 (100 units/mL) (R&D Systems, Minneapolis, Minn.), to generate PHA Blasts. To test IL-23 aptamers, the PHA Blasts were washed twice with 1×PBS, then serum starved for four hours in RPMI, 0.20% FBS. After serum starvation, approximately 2 million cells were aliquotted into appropriately labeled eppendorf tubes. hIL-23 at a final constant concentration of 3 ng/mL (R&D Systems, Minneapolis, Minn.) was combined with a dilution series of various IL-23 aptamers as described in Example 1, and the cytokine/aptamer mixture was added to the aliquotted cells in a final volume of 100 μl and incubated at 37° C. for 10-12 minutes. The incubation reaction was stopped by adding 1 mL of ice-cold PBS with 1.5 mM Na₃VO₄. Cell lysates were made using the lysis buffer provided by the TransAM™ STAT 3 assay following the manufacturer's instructions. FIG. 20 depicts a flow summary of the protocol used for the cell based assay.
# The protocol used was identical to that previously described except mouse IL-23 was used to induce STAT 3 activation in PHA Blasts at a concentration of 30 ng/mL, instead of using human IL-23 at a concentration of 3 ng/mL.
row,Binder,IC50 [nM]
1,B7,18
2,"GGGCACUCAGCCACAGCUCGGUGGCUUAAUAUCUAUGUGAACGUGCCC (ssRNA, 2'-F C,U) [ARC1633 minimer]",7
3,B8,9
4,B9,37
5,B10,31
6,"GGGCACUCAGCCACCUUGGGCUUAAUACCUAUCGGAUGUGCCC (ssRNA, 2'-F C,U) [ARC1634 minimer]",26
7,"GGGCACUCAGCCACAGGUGGCUUAAUACUGUAAAGACGUGCCC (ssRNA, 2'-F C,U) [ARC1739 (ARC1628 minimer)]",18

# Biological target: T2, IL-23 (human, p19/p40 heterodimer)
# Experiment: filter; 1X SHMCK, 1 mM Mg, 1 mM Ca, 0.1 mg/mL tRNA, RT
# Details: tags: R&D Systems, carrier free; label: 5'-32P
# Procedure: as §1, §2
row,Binder,Kd [nM]
1,B2,16.6
2,B3,22.3
3,B4,21.8
4,B5,25
5,B6,27.4

# Biological target: T2, IL-23 (human, p19/p40 heterodimer)
# Experiment: filter; no binding
# Details: tags: R&D Systems, carrier free
# From the text: The fraction aptamer bound vs. [IL-23] was used to calculate the KD by fitting the following equation to the data: Fraction aptamer bound=amplitude*([IL-23]/(KD+[IL-23]))+background binding.
# Table 25 below summarizes the minimized sequences and the parent clone from which they were derived, and Table 26 summarizes the binding characterization from direct binding assays (+/−tRNA) and competition binding assays for the minimized constructs tested.
row,Binder,binding result
1,"GGCGGUACGGGGGGAGUGGGCUGGG (mixed, deoxy A,G; 2'-OMe C,U) [ARC1170]",no binding
2,"ACAGGCAAGGUAAUUGGGUAGUGAGGGCUGGGUGU (mixed, deoxy A,G; 2'-OMe C,U) [ARC896]",no binding
3,"GGCGGUACGGGGAGUGUGGGUUGGG (mixed, deoxy A,G; 2'-OMe C,U) [ARC1171]",no binding

# Same assay, conditions: tags: R&D Systems, carrier free; label: 5'-32P
row,Binder,binding result
1,"GGCGGUUACGGGGGAUGCGGGUGGG (mixed, 2'-deoxy A and G, 2'-OMe C and U (dRmY)) [ARC981]",no binding
2,"GGCAAGGUAAUUGGGAAGUGUGGGCUGGG (mixed, 2'-deoxy A and G, 2'-OMe C and U (dRmY)) [ARC894]",no binding

# Biological target: T2, IL-23 (human, p19/p40 heterodimer)
# Experiment: filter; 1X PBS, tRNA, ssDNA, BSA, 30 min RT
# Details: tags: R&D Systems, carrier free; label: 32P
row,Binder,Kd [nM]
1,B11,186
2,B12,433
3,B13,210
